Data from paper PMC10609148, “Hexa-Histidine, a Peptide with Versatile Applications in the Study of Amyloid-β(1–42) Molecular Mechanisms of Action” (Molecules, 2023).

Assays:
[1] = target: human recombinant cytochrome b5 reductase (Cb5R) with a His6-tag (human); assay: other fluorescence titration; FAD fluorescence (ex 460 nm, em 520 nm) of 32 nM Cb5R with a His6-tag titrated with Aβ peptides; 20 mM phosphate, 0.1 mM DTPA, pH 7, 25 °C; one-site fit; apparent constant, in peptide monomers
[2] = target: human recombinant cytochrome b5 reductase (Cb5R) with a His6-tag (human); assay: inhibition of enzyme activity (NADH-dependent Cb5 reductase activity); 0.11 μg/mL Cb5R with a His6-tag, 5 μM Cb5, 0.25 mM NADH, rising Aβ peptide; absorbance at 550 nm; 20 mM phosphate, 0.1 mM DTPA, pH 7, 25 °C; fit to one inhibitor binding site; in Aβ monomers

Substance: Aβ(25–35) (peptide)
- EC50 [1]: 75 nM
- half-saturation constant in the fitted one-site equation [1]: 99.3
- Ki [2]: 50 to 60 nM
